Measurements: EP4682166A1 (Guangzhou Enmai Biotechnology Co., Ltd, dated 2026)

T1: human NMI (N-myc Interacting protein), recombinant protein (human, UniProt Q13287 1-307, limits assumed)
T1 construct: Gene ID: 9111; also called hNMI; antigen
T1 sequence (looked up): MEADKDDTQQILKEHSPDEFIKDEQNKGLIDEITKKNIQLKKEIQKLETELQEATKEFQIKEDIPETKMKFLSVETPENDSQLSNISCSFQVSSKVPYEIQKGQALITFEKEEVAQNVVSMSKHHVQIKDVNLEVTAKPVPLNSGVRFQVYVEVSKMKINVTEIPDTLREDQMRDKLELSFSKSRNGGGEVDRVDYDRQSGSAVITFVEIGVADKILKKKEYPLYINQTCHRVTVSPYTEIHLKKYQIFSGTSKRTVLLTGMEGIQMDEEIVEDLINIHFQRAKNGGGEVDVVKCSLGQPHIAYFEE

T2: natural NMI in joint fluid of an arthritic patient (human) (UniProt Q13287)
T2 sequence (looked up): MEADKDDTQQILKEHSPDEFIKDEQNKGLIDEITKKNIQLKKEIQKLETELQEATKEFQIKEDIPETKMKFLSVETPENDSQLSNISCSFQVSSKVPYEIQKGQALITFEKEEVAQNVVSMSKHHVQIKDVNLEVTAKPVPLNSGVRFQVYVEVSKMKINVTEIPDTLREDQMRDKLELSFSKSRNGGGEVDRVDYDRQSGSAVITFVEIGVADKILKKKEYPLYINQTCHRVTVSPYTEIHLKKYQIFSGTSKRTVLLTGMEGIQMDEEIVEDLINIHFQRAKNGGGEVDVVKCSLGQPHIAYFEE

T3: NMI-flag overexpressed protein (293T cells transfected with the hNMI-flag plasmid) (human) (UniProt Q13287)
T3 sequence (looked up): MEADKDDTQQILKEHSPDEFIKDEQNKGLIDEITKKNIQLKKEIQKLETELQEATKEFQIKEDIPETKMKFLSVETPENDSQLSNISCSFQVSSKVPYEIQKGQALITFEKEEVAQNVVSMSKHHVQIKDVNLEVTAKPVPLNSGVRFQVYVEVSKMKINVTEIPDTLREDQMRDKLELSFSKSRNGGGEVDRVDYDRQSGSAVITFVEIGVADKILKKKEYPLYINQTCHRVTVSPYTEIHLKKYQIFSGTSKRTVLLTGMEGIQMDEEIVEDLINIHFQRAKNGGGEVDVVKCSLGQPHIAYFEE

T4: human NMI (N-myc Interacting protein) (human) (UniProt Q13287)
T4 sequence (looked up): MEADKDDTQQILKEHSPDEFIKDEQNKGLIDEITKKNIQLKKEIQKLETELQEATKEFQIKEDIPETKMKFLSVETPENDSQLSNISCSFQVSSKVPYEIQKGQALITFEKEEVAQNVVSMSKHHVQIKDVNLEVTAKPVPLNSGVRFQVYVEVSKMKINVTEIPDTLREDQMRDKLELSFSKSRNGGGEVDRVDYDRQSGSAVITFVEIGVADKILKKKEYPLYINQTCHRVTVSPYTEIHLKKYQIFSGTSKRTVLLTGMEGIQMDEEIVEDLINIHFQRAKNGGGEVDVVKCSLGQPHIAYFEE


Assays:
[1] = target: T1, human NMI (N-myc Interacting protein), …; experiment: indirect ELISA, coated hNMI
[2] = target: T1, human NMI (N-myc Interacting protein), …; experiment: sandwich ELISA; detection 39B4-1-biotin; hNMI 11.111 ng/mL
[3] = target: T1, human NMI (N-myc Interacting protein), …; experiment: sandwich ELISA; detection 39B4-1-biotin; hNMI 100.000 ng/mL
[4] = target: T1, human NMI (N-myc Interacting protein), …; experiment: sandwich ELISA; detection 98G10-1-biotin; hNMI 33.333 ng/mL
[5] = target: T1, human NMI (N-myc Interacting protein), …; experiment: sandwich ELISA; detection 94C4-1-biotin 1µg/mL; hNMI 390.625 pg/mL
[6] = target: T1, human NMI (N-myc Interacting protein), …; experiment: sandwich ELISA; detection 94C4-1-biotin 1µg/mL; hNMI 781.250 pg/mL
[7] = target: T1, human NMI (N-myc Interacting protein), …; experiment: sandwich ELISA; detection 94C4-1-biotin 0.5µg/mL; hNMI 97.656 pg/mL
[8] = target: T2, natural NMI in joint fluid of an arthritic patient (human); experiment: sandwich ELISA; detection 94C4-1-biotin 0.5µg/mL; joint fluid stock solution
[9] = target: T1, human NMI (N-myc Interacting protein), …; experiment: sandwich ELISA; detection 94C4-1-biotin 0.5µg/mL; hNMI 390.625 pg/mL
[10] = target: T1, human NMI (N-myc Interacting protein), …; experiment: sandwich ELISA; detection 94C4-1-biotin 0.5µg/mL; hNMI 3,125.000 pg/mL
[11] = target: T1, human NMI (N-myc Interacting protein), …; experiment: sandwich ELISA; detection 94C4-1-biotin 0.5µg/mL; hNMI 25,000.000 pg/mL
[12] = target: T3, NMI-flag overexpressed protein (293T cells transfected with the hNMI-flag plasmid) (human); experiment: sandwich ELISA; detection 94C4-1-biotin; cell lysates of NMI-flag 293T, replicate 2
[13] = target: T4, human NMI (N-myc Interacting protein) (human); experiment: magnetic-bead chemiluminescent sandwich; capture 98G10 beads (1.0 mg 98G10), detection acridinium-B-8; hNMI 400 pg/ml
[14] = target: T4, human NMI (N-myc Interacting protein) (human); experiment: magnetic-bead chemiluminescent sandwich; capture 98G10 beads (0.5 mg 98G10), detection acridinium-B-8; hNMI 2000 pg/ml
[15] = target: T4, human NMI (N-myc Interacting protein) (human); experiment: magnetic-bead chemiluminescent sandwich; capture 98G10 beads (1.0 mg 98G10), detection acridinium-B-8; hNMI 1000 pg/ml
[16] = target: T4, human NMI (N-myc Interacting protein) (human); experiment: magnetic-bead chemiluminescent sandwich; capture 98G10 beads (1.0 mg 98G10), detection acridinium-B-8; hNMI 2000 pg/ml
[17] = target: T4, human NMI (N-myc Interacting protein) (human); experiment: magnetic-bead chemiluminescent sandwich; capture 98G10 beads, detection acridinium-B-8 (1.0 mg B-8 labelled); hNMI 50 pg/mL
[18] = target: T4, human NMI (N-myc Interacting protein) (human); experiment: magnetic-bead chemiluminescent sandwich; capture 98G10 beads, detection acridinium-B-8 (1.0 mg B-8 labelled); hNMI 400 pg/mL
[19] = target: T4, human NMI (N-myc Interacting protein) (human); experiment: magnetic-bead chemiluminescent sandwich; capture 98G10 beads, detection acridinium-B-8 (1.0 mg B-8 labelled); hNMI 2000 pg/mL
[20] = target: T4, human NMI (N-myc Interacting protein) (human); experiment: magnetic-bead chemiluminescent sandwich; capture 98G10 beads, detection acridinium-B-8 (2.0 mg B-8 labelled); hNMI 1000 pg/mL
[21] = target: T4, human NMI (N-myc Interacting protein) (human); experiment: magnetic-bead chemiluminescent sandwich, kit of Example 8-1; capture 98G10 beads, detection acridinium-B-8; series 1, hNMI 50 pg/mL
[22] = target: T4, human NMI (N-myc Interacting protein) (human); experiment: magnetic-bead chemiluminescent sandwich, kit of Example 8-1; capture 98G10 beads, detection acridinium-B-8; series 2, hNMI 50 pg/mL
[23] = target: T4, human NMI (N-myc Interacting protein) (human); experiment: magnetic-bead chemiluminescent sandwich, kit of Example 8-1; capture 98G10 beads, detection acridinium-B-8; series 2, hNMI 5000 pg/mL
[24] = target: T4, human NMI (N-myc Interacting protein) (human); experiment: magnetic-bead chemiluminescent sandwich, kit of Example 8-1; capture 98G10 beads, detection acridinium-B-8; series 1, hNMI 16000 pg/mL

| EC50 [1] [µg/mL] | OD450 [2] [OD450] | OD450 [3] [OD450] | OD450 [4] [OD450] | OD450 [5] [OD450] | OD450 [6] [OD450] | OD450 [7] [OD450] | OD450 [9] [OD450] | OD450 [10] [OD450] | OD450 [11] [OD450] | Binder | also measured |
| --- | --- | --- | --- | --- | --- | --- | --- | --- | --- | --- | --- |
| 0.0444 | 1.25 | 3.07 | 2.48 | 0.206 | 0.288 | 0.113 | 0.178 | 0.712 | 2.71 | monoclonal antibody B-8 (antibody, V domains shown, Rabbit monoclonal antibody; also called B8-1) VH: QSLEESGGDLVKPGASLTLTCTASGFSFSSSYYMCWVRQAPGKGLEWIACIYAGSSGSTYYASWAKGRFTISKTSSTTVTLQMTSLTAADTATYFCAREYSYDDYGDFWGFNLWGPGTLVTVSS VL: ALVMTQTPSSVSAAVGGTVTINCQASQNIYTNLAWYQQKPGQPPKLLIYGASNLESGVPSRFKGSGSGTEYTLTISDLECDDAATYYCQSSLYSRIADRANAFGGGTEVVVK | OD450 [8]: 0.221 OD450; OD450 [12]: 2.9 OD450 |
|  |  |  |  |  |  |  |  |  |  | acridinium ester-labeled monoclonal antibody B-8 (antibody, V domains shown, acridinium ester label on the antibody, site not stated) VH: QSLEESGGDLVKPGASLTLTCTASGFSFSSSYYMCWVRQAPGKGLEWIACIYAGSSGSTYYASWAKGRFTISKTSSTTVTLQMTSLTAADTATYFCAREYSYDDYGDFWGFNLWGPGTLVTVSS VL: ALVMTQTPSSVSAAVGGTVTINCQASQNIYTNLAWYQQKPGQPPKLLIYGASNLESGVPSRFKGSGSGTEYTLTISDLECDDAATYYCQSSLYSRIADRANAFGGGTEVVVK | Signal value [13]: 86800; Signal value [14]: 204000; Signal value [15]: 201000; Signal value [16]: 397000; Signal value [17]: 4560; Signal value [18]: 39900; Signal value [19]: 204000; Signal value [20]: 116000; Signal value [21]: 2010; Signal value [22]: 6180; Signal value [23]: 560000; Signal value [24]: 1.21e+06 |
| 0.0477 | 1.71 | 3.12 | 2.56 | 0.255 | 0.351 | 0.146 | 0.268 | 1.29 | 2.94 | monoclonal antibody 240B10-1 (antibody, V domains shown, Rabbit monoclonal antibody) VH: QSLEESGGRLVTPGGSLTLTCTVSGIDLSSYTMGWVRQAPGKGLEYIGIISGGGRTYYASWAKGRFTISKTSSTTVDLKVTSLTTEDTATYFCARIYTLWGQGTLVTVSS VL: QVLTQTLASVSAAVGGTVTINCQSSQSVYNNDYLAWFQQKSGQPPKQLIHSASKLASGVPSRFKGSGSGTQFTLTINDVQCDDAATYYCLGGYDCYSADCNVFGGGTEVVVK |  |
